Measured values as given in patent publication US20230090014A1 (NANJING SANHOME PHARMACEUTICAL, published 2023).
Numbering of substitutions follows the chain as printed. Read-outs that look alike come from different tables or passages of the source. One block for each binder: values may come before it.

Legend:
Cynomolgus CD47-His = molecular target: T1, Cynomolgus CD47-His (cynomolgus, UniProt A0A2K5X523 19-139); assay: ELISA on coated cynomolgus CD47-His, anti-human IgG HRP, OD450
T1 construct: Bought protein; also called monkey CD47

[1] = molecular target: T2, CD47 on the surface of CHO-K1-E5 cells (human, UniProt Q08722 19-323); assay: FACS on CHO-K1-hCD47 cells, PE anti-human IgG
T2 construct: Full length CD47 expressed from pTargeT-CD47 in CHO-K1 cells; also called CD47 on cell surface; CHO-K1-hCD47

Human CD47-His protein [2] = molecular target: T3, Human CD47-His protein (human, UniProt Q08722 19-136); assay: competition ELISA on coated CD47-His; blocked ligand SIRPα-biotin (2 µg/mL), SA-HRP, OD450
Human CD47-His protein [3] = molecular target: T3, Human CD47-His protein; assay: ELISA on coated human CD47-His, anti-human IgG HRP, OD450
[4] = molecular target: T2, CD47 on the surface of CHO-K1-E5 cells; assay: FACS blocking assay on CHO-K1-hCD47 cells; blocked ligand SIRPα-biotin, PE-SA
[5] = molecular target: T2, CD47 on the surface of CHO-K1-E5 cells; assay: FACS blocking assay on CHO-K1-E5 cells; blocked ligand SIRPα-Biotin, PE streptavidin
[6] = molecular target: T2, CD47 on the surface of CHO-K1-E5 cells; assay: cell based ELISA on fixed CHO-K1-E5 cells, anti-human IgG HRP, OD450
[7] = molecular target: T4, hCD47 on the surface of Raji-hPD-L1 cells (human, UniProt Q08722 19-323); assay: FACS on Raji-hPD-L1 cells (carry both hPD-L1 and hCD47), PE anti-human IgG Fc
T4 construct: whole, on cells

Human CD47-His protein [8] = molecular target: T3, Human CD47-His protein; assay: ELISA on coated human CD47-His, HRP anti-human IgG, OD450
CD47(19-136)-hFc = molecular target: T5, CD47(19-136)-hFc (human, biotin-labelled in the Octet assay of Example 8 (sites not given)); assay: BLI (Fortebio Octet RED96), biotinylated CD47-hFc on SA sensor, antibody in solution
T5 construct: tied by name; also called CD47-hFc; CD47-hFc-Biotin
T5 sequence (chain, as listed by the source limits assumed): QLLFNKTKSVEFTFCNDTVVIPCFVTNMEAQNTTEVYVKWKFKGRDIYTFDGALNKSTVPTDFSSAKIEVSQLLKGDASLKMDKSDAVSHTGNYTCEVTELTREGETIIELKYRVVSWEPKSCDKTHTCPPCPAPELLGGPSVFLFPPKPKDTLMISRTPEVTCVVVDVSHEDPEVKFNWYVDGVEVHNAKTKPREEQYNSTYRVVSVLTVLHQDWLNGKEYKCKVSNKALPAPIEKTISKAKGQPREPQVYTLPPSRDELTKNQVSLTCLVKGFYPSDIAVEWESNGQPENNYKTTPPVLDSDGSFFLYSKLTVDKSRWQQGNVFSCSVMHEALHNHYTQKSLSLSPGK

[9] = molecular target: T4, hCD47 on the surface of Raji-hPD-L1 …; assay: FACS on Raji-hPD-L1 cells (carry both hPD-L1 and hCD47), PE anti-human IgG Fc; remark: listed apart in the source
Human CD47-His protein [10] = molecular target: T3, Human CD47-His protein; assay: ELISA of hybridoma supernatant, binding activity to CD47
[11] = molecular target: T2, CD47 on the surface of CHO-K1-E5 cells; assay: competition FACS on CHO-K1-hCD47 cells, SIRPα-biotin as competitor
Human PD-L1-His protein = Human PD-L1-His protein (human, UniProt Q9NZQ7 19-238, limits assumed); assay: ELISA on coated human PD-L1-His, HRP anti-human IgG, OD450
Sequence of Human PD-L1-His protein (Q9NZQ7 19-238 limits assumed): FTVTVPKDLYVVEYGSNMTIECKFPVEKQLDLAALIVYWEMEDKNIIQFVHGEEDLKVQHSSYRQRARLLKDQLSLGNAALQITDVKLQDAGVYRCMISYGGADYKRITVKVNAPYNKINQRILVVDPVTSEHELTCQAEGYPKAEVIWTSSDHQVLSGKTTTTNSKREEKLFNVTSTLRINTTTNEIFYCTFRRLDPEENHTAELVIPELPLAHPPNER

Human CD47-His protein [12] = molecular target: T3, Human CD47-His protein; assay: ELISA, human CD47-His coated
Human PD-L1-hFC protein = Human PD-L1-hFC protein (human, UniProt Q9NZQ7 19-238, limits assumed); assay: competition ELISA on coated PD-L1-hFc; blocked ligand PD-1-mFc (1 µg/mL), anti-mouse IgG HRP, OD450
Sequence of Human PD-L1-hFC protein (Q9NZQ7 19-238 limits assumed): as above

PD-L1-mFc = PD-L1-mFc (UniProt Q9NZQ7 19-238, limits assumed); assay: competition ELISA on coated CD80-hFc; antibody mixed with PD-L1-mFc, bound PD-L1-mFc detected with anti-mouse IgG HRP, OD450; design: unit not given here
Sequence of PD-L1-mFc (Q9NZQ7 19-238 limits assumed): as above

Human CD47-His protein [13] = molecular target: T3, Human CD47-His protein; assay: competition ELISA: CD47-His coated, SIRPα-biotin as competitor
[14] = molecular target: T2, CD47 on the surface of CHO-K1-E5 cells; assay: FACS on CHO-K1-hCD47 cells
[15] = molecular target: T6, hPD-L1 on the surface of CHO-K1-hPD-L1 and Raji-hPD-L1 cells (human, UniProt Q9NZQ7 19-238); assay: FACS on CHO-K1-hPD-L1 cells, PE anti-human IgG
T6 construct: also called CHO-K1-PD-L1; human PD-L1 on cell surface
T6 sequence (Q9NZQ7 19-238): as the sequence (Q9NZQ7 19-238 limits assumed) above

[16] = molecular target: T6, hPD-L1 on the surface of CHO-K1-hPD-L1 …; assay: FACS blocking assay on CHO-K1-hPD-L1 cells; blocked ligand PD-1-mFc (1 µg/mL), PE anti-mouse IgG

B1: Hu34-39-PE (antibody, IgG4, V domains shown)
VH: QVQLQESGPGLVKPSQTLSLTCKASGYTFTNYWITWVKQRPGQGLEWIGDITPGRGETNYNQKFKGRVTLTVDISASTAYMELSSLRSEDTAVYYCSRWGLRRGDYWGQGTSVTVSS
VL: EIVLTQSPGTLSLSPGERATLSCRASSSVSSSYLNWYQQKSGASPKLWIYSTSNLASGVPGRFSGSGSGTSYSLTISSVEAEDAATYYCQQYSGYPLTFGAGTKLEVK
notes: also called humanized anti-CD47 antibody Hu34-39-PE
EC50 (read off the curve) (Cynomolgus CD47-His): ~0.1 nM | EC50 (read off the curve) [1]: ~1 nM | IC50 (read off the curve) (Human CD47-His protein [2]): ~100 nM | EC50 (read off the curve) (Human CD47-His protein [3]): ~0.08 nM | IC50 (read off the curve) [4]: ~2 nM | IC50 (read off the curve) [5]: ~1 nM | EC50 (read off the curve) [6]: ~0.1 nM | EC50 (read off the curve) [7]: ~0.2 nM | EC50 (read off the curve) (Human CD47-His protein [8]): ~60 nM | Kd (CD47(19-136)-hFc): 0.113 nM | koff (CD47(19-136)-hFc): 0.000758 s⁻¹ | kon (CD47(19-136)-hFc): 6.69e+06 M⁻¹ s⁻¹ | EC50 (read off the curve) [9]: ~0.1 nM

B3: AB6.12-IgG4P (antibody, V domains shown)
VH: QMQLVQSGAEVKKTGSSVKVSCKASGFNIKDYYLHWVRQAPGQALEWMGWIDPDQGDTEYAQKFQDRVTITRDRSMSTAYMELSSLRSEDTAMYYCNAAYGSSSYPMDYWGQGTTVTVSS
VL: NIQMTQSPSAMSASVGDRVTITCKASQDIHRYLSWFQQKPGKVPKHLIYRANRLVSGVPSRFSGSGSGTEFTLTISSLQPEDFATYYCLQYDEFPYTFGGGTKVEIKR
notes: Anti-CD47 control antibody from WO2013/119714; also called AB06.12-4P; AB06.12-P
EC50 (read off the curve) (Cynomolgus CD47-His): ~0.1 nM | EC50 (read off the curve) (Human CD47-His protein [3]): ~0.08 nM | IC50 (read off the curve) [5]: ~1 nM | EC50 (read off the curve) [6]: ~0.1 nM | Kd (CD47(19-136)-hFc): 0.101 nM | koff (CD47(19-136)-hFc): 0.000485 s⁻¹ | kon (CD47(19-136)-hFc): 4.8e+06 M⁻¹ s⁻¹

B4: Hu58A-14-PE (antibody, IgG4, V domains shown)
VH: EVQLLESGGGLVQPGGSLRLSCAASGFIFSRFGMAWVRQTPDKRLEWVATISSGGSYTYYPDSVKGRLTISRDNAKTTLYLQMRSLKSEDTAMYYCARQGLLDYLYALDYWGQGTAVTVSS
VL: DIQMTQSPSSVSASIGDRVTITCKASQDINSFLAWFQQKPGKSPRPLIYRAYRLVDGVPSRFSGVGSGQDYSLTISSLDYEDLGIYYCQQYVEFPPTFGAGTMLELK
notes: also called humanized anti-CD47 antibody Hu58A-14-PE
EC50 (read off the curve) (Cynomolgus CD47-His): ~0.1 nM | EC50 (read off the curve) (Human CD47-His protein [3]): ~0.08 nM | IC50 (read off the curve) [5]: ~5 nM | EC50 (read off the curve) [6]: ~0.1 nM | Kd (CD47(19-136)-hFc): 0.0946 nM | koff (CD47(19-136)-hFc): 0.000168 s⁻¹ | kon (CD47(19-136)-hFc): 1.78e+06 M⁻¹ s⁻¹

B7: Hu26T-31-PE (antibody, IgG4, V domains shown)
VH: QVQLVQSGAEVKKPGASVKVSCKASGYTFTDYYMNWVRQAPGQGLEWIGRIYPGSGLTYYNAKFKGRATVTADKSTSTVYMELSSLRSEDTAVYYCARTSYGSSFPHVWGQGTTVTVSS
VL: DIQMTQSPSSLSASVGDRVTITCKSSQSLLNVNDQKNYLAWYQQKPGKAPKLLIYFASTRESGVPSRFSGSGSGTDFTLTISSLQPEDFATYYCQQHYSTPLTFGQGTKLEIK
notes: also called humanized anti-CD47 antibody Hu26T-31-PE
EC50 (read off the curve) (Cynomolgus CD47-His): ~0.1 nM | EC50 (read off the curve) (Human CD47-His protein [3]): ~0.1 nM | IC50 (read off the curve) [5]: ~1 nM | EC50 (read off the curve) [6]: ~0.1 nM | Kd (CD47(19-136)-hFc): 0.0587 nM | koff (CD47(19-136)-hFc): 6.13e-05 s⁻¹ | kon (CD47(19-136)-hFc): 1.04e+06 M⁻¹ s⁻¹

B8: ScFab (HuPL7-21Ks/Hu34-39Hs) (bispecific antibody)
chain 1: not shown
chain 2: EIVLTQSPGTLSLSPGERATLSCRASSSVSSSYLNWYQQKSGASPKLWIYSTSNLASGVPGRFSGSGSGTSYSLTISSVEAEDAATYYCQQYSGYPLTFGAGTKLEVKRTVAAPSVFIFPPSDEQLKSGTASVVCLLNNFYPREAKVQWKVDNALQSGNSQESVTEQDSKDSTYSLSSTLTLSKADYEKHKVYACEVTHQGLSSPVTKSFNRGECGGGGSGGGGSGGGGSGGGGSGGGGSGGGGSQVQLQESGPGLVKPSQTLSLTCKASGYTFTNYWITWVKQRPGQGLEWIGDITPGRGETNYNQKFKGRVTLTVDISASTAYMELSSLRSEDTAVYYCSRWGLRRGDYWGQGTSVTVSSASTKGPSVFPLAPCSRSTSESTAALGCLVKDYFPEPVTVSWNSGALTSGVHTFPAVLQSSGLYSLSSVVTVPSSSLGTKTYTCNVDHKPSNTKVDKRVESKYGPPCPPCPAPEFEGGPSVFLFPPKPKDTLMISRTPEVTCVVVDVSQEDPEVQFNWYVDGVEVHNAKTKPREEQFNSTYRVVSVLTVLHQDWLNGKEYKCKVSNKGLPSSIEKTISKAKGQPREPQVCTLPPSQEEMTKNQVSLSCAVKGFYPSDIAVEWESNGQPENNYKTTPPVLDSDGSFFLVSRLTVDKSRWQEGNVFSCSVMHEALHNHYTQKSLSLSLGK
notes: also called BiAb; Bi Ab
fold increase of IC50 against Hu34-39-PE [11]: 3 times | EC50 (read off the curve) [1]: ~10 nM | EC50 (read off the curve) (Human PD-L1-His protein): ~200 nM | fold increase of binding EC50 against Hu34-39-PE (Human CD47-His protein [12]): 40 fold | IC50 (read off the curve) (Human PD-L1-hFC protein): ~1000 nM | IC50 (read off the curve) [4]: ~8 nM | IC50 (read off the curve) (PD-L1-mFc): ~10 | fold increase of IC50 against Hu34-39-PE (Human CD47-His protein [13]): ~40 times | EC50 (read off the curve) (Human CD47-His protein [8]): ~2000 nM | fold decrease of Emax against Hu34-39-PE [14]: ~2 times | fold increase of EC50 against Hu34-39-PE [14]: ~4 times | EC50 (read off the curve) [15]: ~2 nM | IC50 (read off the curve) [16]: ~3 nM

The next lines start with the values.

binding result (Human CD47-His protein [10]): binds
B2: SHC025-34 (antibody, IgG2c, V domains shown)
VH: QVQLQQPGAELVKPGASVKMSCKASGYTFTNYWITWVKQRPGQGLEWIGDITPGRGETNYNEKFKSKATLTVDTSSSTAYMQLTSLTSEDSAVYYCSRWGLRRGDYWGQGTSVTVSS
VL: B1 VL with I2N, G9A, T10I, L11M, L13A, R18K, A19V, L21M, S22T
notes: tested as culture supernatant

binding result (Human CD47-His protein [10]): binds
B5: SHC025-58 (antibody, IgG2b, V domains shown)
VH: B4 VH with L5V, G10D, Q13E, R19K
VL: B4 VL with Q3K, T5I, V11M, S12Y, S14G, I15L, D17E, I21F, T22N, A34C
notes: tested as culture supernatant

binding result (Human CD47-His protein [10]): binds
B6: SHC025-26 (antibody, IgG1, V domains shown)
VH: QVQLKQSGAELVRPGASVKLSCKASGYIFTDYYMNWVKQRPGQGLEWIARIYPGSGLTYYNAKFKGKATVTAEKSSSTAYMQLSSLTSEDSAVYFCARCSYGSSFPHVWGTGTTVTVSS
VL: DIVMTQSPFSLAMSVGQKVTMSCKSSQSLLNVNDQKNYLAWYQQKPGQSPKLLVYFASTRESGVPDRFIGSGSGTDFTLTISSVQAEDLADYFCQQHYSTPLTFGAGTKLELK
notes: tested as culture supernatant

fold increase of IC50 against Hu34-39-PE [11]: 3 times | EC50 (read off the curve) [1]: ~10 nM | fold increase of binding EC50 against Hu34-39-PE (Human CD47-His protein [12]): ~40 times | IC50 (read off the curve) [4]: ~5 nM | fold increase of IC50 against Hu34-39-PE (Human CD47-His protein [13]): ~40 times | EC50 (read off the curve) (Human CD47-His protein [8]): ~2000 nM | fold decrease of Emax against Hu34-39-PE [14]: ~2 times | fold increase of EC50 against Hu34-39-PE [14]: ~4 times | EC50 (read off the curve) [15]: ~2 nM | IC50 (read off the curve) [16]: ~5 nM
B9: ScFab (HuPL16-42Ks/Hu34-39Hs) (bispecific antibody)
chain 1: not shown
chain 2: B8 chain 2
